Blank lines part the entries; values can stand above or below the binder they belong to.
How the values were obtained:
Conditions in all cases: one partner purified
[1] = biological target: T1, African green monkey uPAR on COS-1 cells (Chlorocebus aethiops (COS-1 cells), UniProt Q9GK79); test: flow cytometry on cells; cells incubated with ATN-658 (10 µg/mL) 1 h at 4°C in FACS buffer, Alexa Fluor 488 secondary antibody
T1 construct: also called AGM uPAR; source: endogenous, on COS-1 cells

[2] = biological target: T2, chimpanzee uPAR in tissues (chimpanzee (endogenous in tissues), UniProt Q9GK80); test: immunostaining of cells or tissue; immunohistochemistry of chimpanzee tissues with ATN-658; no figure or methods given
T2 construct: source: endogenous, chimpanzee tissues
T2 sequence (Q9GK80 23-305): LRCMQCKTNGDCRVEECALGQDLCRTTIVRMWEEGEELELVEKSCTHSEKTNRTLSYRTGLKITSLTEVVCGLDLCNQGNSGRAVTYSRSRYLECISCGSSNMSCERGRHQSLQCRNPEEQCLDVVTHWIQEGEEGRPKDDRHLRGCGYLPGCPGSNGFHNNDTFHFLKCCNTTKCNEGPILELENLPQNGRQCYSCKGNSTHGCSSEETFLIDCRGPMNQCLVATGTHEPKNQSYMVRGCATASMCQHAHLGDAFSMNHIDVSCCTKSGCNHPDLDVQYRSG

[3] = biological target: T3, mouse uPAR on B16 melanoma cells (Mus musculus (B16 melanoma), UniProt P35456); test: whole cell saturation binding assay; adherent cells on gelatin coated 12-well plates, varying concentrations of biotin-labeled ATN-658 in HBSS/0.1% BSA, 1 h at room temperature, HRP-streptavidin and OPD
T3 construct: source: endogenous, on B16 cells
T3 sequence (P35456 24-298): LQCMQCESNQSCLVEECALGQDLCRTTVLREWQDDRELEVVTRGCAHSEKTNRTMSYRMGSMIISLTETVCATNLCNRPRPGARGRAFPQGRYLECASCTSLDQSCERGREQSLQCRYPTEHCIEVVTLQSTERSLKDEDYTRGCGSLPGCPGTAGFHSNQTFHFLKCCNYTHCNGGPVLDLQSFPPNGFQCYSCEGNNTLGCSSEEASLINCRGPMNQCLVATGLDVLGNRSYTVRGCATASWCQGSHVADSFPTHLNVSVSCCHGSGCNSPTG

[4] = biological target: T1, African green monkey uPAR on COS-1 cells; test: as above
[5] = biological target: T4, African green monkey (AGM) suPAR (Chlorocebus aethiops (COS-1 cells), UniProt Q9GK79); test: ELISA; capture ELISA: suPAR clones from culture supernatant captured by anti-V5 antibody on the plate, biotin-ATN-658, streptavidin-HRP, OPD; saturation binding
T4 construct: soluble uPAR (suPAR) of African green monkey (Cercopithecus aethiops), cloned from COS-1 cells by PCR; numbers count on: the mature protein; Parent of the nine point mutants; also called monkey suPAR; source: Drosophila S2 cells, expressed as described for human suPAR
T4 sequence (Q9GK79 whole entry, looked up): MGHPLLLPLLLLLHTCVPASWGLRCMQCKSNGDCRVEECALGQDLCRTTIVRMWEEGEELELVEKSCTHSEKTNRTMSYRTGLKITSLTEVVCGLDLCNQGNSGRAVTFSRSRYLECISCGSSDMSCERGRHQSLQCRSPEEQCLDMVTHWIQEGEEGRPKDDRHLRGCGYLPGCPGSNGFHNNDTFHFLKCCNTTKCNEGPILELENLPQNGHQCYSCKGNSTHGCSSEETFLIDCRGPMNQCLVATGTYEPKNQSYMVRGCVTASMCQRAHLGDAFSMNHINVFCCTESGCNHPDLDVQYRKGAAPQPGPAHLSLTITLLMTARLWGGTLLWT

[6] = biological target: T5, human uPAR on the surface of cells (PC-3, HeLa) (Homo sapiens, UniProt Q03405); test: radioligand binding; iodinated ATN-658 on the surface of HeLa cells
T5 construct: source: endogenous, on PC-3 and HeLa cells
T5 sequence (Q03405 23-305): as the sequence (Q9GK80 23-305) above, with M31L, N102D, N117S counted along it

T1 sequence (Q9GK79 whole entry, looked up): as the sequence (Q9GK79 whole entry, looked up) above

binding result [1]: no binding (tested: 10 µg/mL)
binding result [2]: binds
B1: ATN-658 monoclonal antibody (antibody, V domains shown)
VH: EVQLQQSGPELVKTGASVKISCKASGYSFTSYYMHWVKQSHGKSLEWIGEINPYNGGASYNQKIKGRATFTVDTSSRTAYMQFNSLTSEDSAVYYCARSIYGHSVLDYWGQGTSVSVSS
VL: not shown
notes: Fab part as the heavy chain of m4, followed by the rest of a mouse IgG1 heavy chain; as the light chain of m4 (kappa); Mouse IgG1 kappa; source: mouse hybridoma tissue culture supernatant, purified (protein-A Sepharose)

binding result [3]: no binding
binding result [4]: no binding
B2: Biotin-ATN-658 (antibody, V domains shown)
VH: EVQLQQSGPELVKTGASVKISCKASGYSFTSYYMHWVKQSHGKSLEWIGEINPYNGGASYNQKIKGRATFTVDTSSRTAYMQFNSLTSEDSAVYYCARSIYGHSVLDYWGQGTSVSVSS
VL: not shown
notes: as the heavy chain of m1; as the light chain of m1; Mouse IgG1 kappa
binding result [5]: no binding (tested: 1 µg/mL biotin-ATN-658 (methods))

Kd [6]: ~5 nM
B3: iodinated ATN-658 (antibody, V domains shown)
VH: EVQLQQSGPELVKTGASVKISCKASGYSFTSYYMHWVKQSHGKSLEWIGEINPYNGGASYNQKIKGRATFTVDTSSRTAYMQFNSLTSEDSAVYYCARSIYGHSVLDYWGQGTSVSVSS
VL: not shown
notes: as the heavy chain of m1; as the light chain of m1; Mouse IgG1 kappa; source: mouse hybridoma tissue culture supernatant, purified (protein-A Sepharose), iodinated
